In patent publication US20180282373:

Molecular target: purified recombinant full-length WDR5, P61964

Protein	core complex methyltransferase activity, H3K4me0 peptide, mutant against wild type	core complex methyltransferase activity, H3K4me1 and H3K4me2 peptides, mutant against wild type
GST-tagged MLL3 Win-SET domain, MLL3(4689-4911), R4710A (protein) FRYGRNPLMELPLAVNPTGCAASEPKMSAHVKRFVLRPHTLNSTSTSKSFQSTVTGELNAPYSKQFVHSKSSQYRKMKTEWKSNVYLARSRIQGLGLYAARDIEKHTMVIEYIGTIIRNEVANRKEKLYESQNRGVYMFRMDNDHVIDATLTGGPARYINHSCAPNCVAEVVTFERGHKIIISSSRRIQKGEELCYDYKFDFEDDQHKIPCHCGAVNCRKWMN	approximately 2-fold more activity than the wild-type MLL3 core complex	
GST-tagged SETd1B Win-SET domain, Setd1B(1727-1966), R1748A (protein) LSSAKKKKRDDGIREHVTGCAASEGFYTIDKKDKLRYLNSSRASTDEPPADTQGMSIPAQPHASTRAGSERRSEQRRLLSSFTGSCDSDLLKFNQLKFRKKKLKFCKSHIHDWGLFAMEPIAADEMVIEYVGQNIRQVIADMREKRYEDEGIGSSYMFRVDHDTIIDATKCGNFARFINHSCNPNCYAKVITVESQKKIVIYSKQHINVNEEITYDYKFPIEDVKIPCLCGSENCRGTLN		showed similar amounts of activity compared to that of their wild-type counterparts
